# Target: 6xHis-CTHS-GFP fusion protein (yeast (SUMO/Smt3 part))
# Test: mixing of purified proteins in solution, complex shown by Ulp1 cleavage (FIG. 7A)
# Method: FIG. 7A depicts the experimental results obtained when combining NTHS and CTHS-GFP in solution, resulting in assembly and formation of a cleavable complex. 6xHis-CTHS-GFP fusion protein purified from E. coli was incubated with SUMO hydrolase Ulp1 and 6xHis-NTHS (lanes […]), with 6xHis-NTHS (lanes 1-3) or Ulp1 (lanes 7-9). Release of free GFP can be observed only when all the components are present in the reaction mix. […] Furthermore, purification tags such as, but not limited to 6xHis, GST, MBP, a sequence facilitating covalent coupling to solid support such as Cys residue, may be attached to either the amino- and/or carboxy-termini of NTHS.
binder,measurement,value
"6xHis tagged NTHS (other, Purified from E. coli and used in solution in the reconstitution and cleavage experiments; also called 6xHis-NTHS) MGHHHHHHGSDSEVNQEAKPEVKPEVKPETHINLKVSDGSSEIFFKIKKTTPLRRLMEAFAK",binding result,binds

# Source: patent US20070037246A1 (LIFESENSORS, published 2007)
